Measurements published in patent publication US20180346544A1.

Molecular target: CD276.MG.BB.z CAR (SEQ ID NO: 12)
Assay: flow cytometry, Protein L staining of T cells cultured with CD276.MG.BB.z vector supernatant; the mock-transduced panel gives 2.56

Sequence of CD276.MG.BB.z CAR (SEQ ID NO: 12) (chain, as listed by the source, form in doubt): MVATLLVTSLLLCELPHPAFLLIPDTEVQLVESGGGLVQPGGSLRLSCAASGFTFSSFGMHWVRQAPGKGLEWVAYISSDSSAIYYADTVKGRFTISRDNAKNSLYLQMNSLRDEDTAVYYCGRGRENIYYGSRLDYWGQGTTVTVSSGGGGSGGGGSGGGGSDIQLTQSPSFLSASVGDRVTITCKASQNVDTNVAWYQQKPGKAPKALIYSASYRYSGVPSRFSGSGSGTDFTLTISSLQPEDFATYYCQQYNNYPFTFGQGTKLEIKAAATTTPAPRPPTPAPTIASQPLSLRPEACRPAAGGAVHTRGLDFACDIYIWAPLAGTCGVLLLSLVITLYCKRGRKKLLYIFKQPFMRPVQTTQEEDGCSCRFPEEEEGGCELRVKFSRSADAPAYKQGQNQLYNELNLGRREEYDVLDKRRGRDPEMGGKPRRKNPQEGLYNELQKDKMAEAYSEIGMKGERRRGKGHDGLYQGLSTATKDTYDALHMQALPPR

- value of the horizontal bar in the flow cytometric histogram (Protein L staining): 54.7
Substance: Protein L
